Experimental data from paper PMC12577854, “CsUGT89A2 enhances tea plant resistance to Toxoptera aurantia by mediating flavonoid glycosides biosynthesis” (Horticulture Research, 2025).

Columns and labels:
Experiment in all cases: HPLC assay of 7-O-glucoside formation
Format in all cases: biochemical, Camellia sinensis
Conditions in all cases: 2.5 mM UDP-glucose, pH 8.0, 40°C
[1] = system: T1, O=c1c(O)c(-c2ccc(O)c(O)c2)oc2cc(O)cc(O)c12
T1 construct: Ni-TED purified (methods say amylose resin)

[2] = system: T2, O=c1c(O)c(-c2ccc(O)cc2)oc2cc(O)cc(O)c12
T2 construct: Ni-TED purified (methods say amylose resin)

[3] = system: T3, O=c1cc(-c2ccc(O)cc2)oc2cc(O)cc(O)c12
T3 construct: Ni-TED purified (methods say amylose resin)

[4] = system: T4, O=c1cc(-c2ccc(O)c(O)c2)oc2cc(O)cc(O)c12
T4 construct: Ni-TED purified (methods say amylose resin)

Substance: rCsUGT89A2 (CsUGT89A2, LOC114303213) (Camellia sinensis var. sinensis)
- Km [1]: 106.0 µM
- Km [2]: 164.5 µM
- Km [3]: 46.3 µM
- Km [4]: 76.4 µM
